According to patent US20220040304A1, “A COMPOSITION FOR CANCER CELL DEATH AND ITS USE” (Industry-University Cooperation Foundation Hanyang …, priority 2018, published 2022):
“Also recorded” adds a separate entry of the source.

How the values were obtained:
MCF-7 cells [1] = experiment: Cell death according to incubation time per light irradiation time (SYTOX Green/DAPI); type: cell-based, human; settings: MCF-7, protein 10 μM
Method: MCF-7 cells were seeded at 5×10^5 cells/mL in a 96-well plate (SPL Cell Culture Plate, 96 well (SPL, Cat #30096)), and cultured at 37° C. for 24 hours (overnight). After the culture for 24 hours, the cells were washed with FBS & Phenol red-free media (RPMI, Well Gene., Korea, Cat #LM011-02), and 100 μL of an FBS-free medium containing the purified protein (final concentration: 10 μM) was added, followed by reaction at 37° C. for 24 hours.
After the reaction for 24 hours, the cells were washed with FBS & Phenol red-free media (RPMI), and then 100 μL of FBS & Phenol red-free media (RPMI) was added again. After light irradiation at 10 mW/cm^2 over time, the cells were incubated at 37° C.
After incubation, 50 μL of SYTOX Green (final concentration: 261 nM) staining DNA of dead cells and 10 μL of DAPI (Vector Laboratories Inc., USA) staining DNA of live cells were added, followed by reaction for 5 minutes. Cell death was confirmed by detecting KillerRed, SYTOX Green and DAPI fluorescence according to the light irradiation time for cells using a confocal microscope.

MCF-7 cells [2] = experiment: Cell death according to presence of serum and protein concentration (Co-h); type: cell-based, human; settings: MCF-7, serum-free media or serum-containing media, 12 hours, Co-h 150 μM
Method: MCF-7 cells were seeded at 5×10^5 cells/mL in a 96-well plate (SPL Cell Culture Plate, 96 well (SPL, Cat #30096)), and cultured at 37° C. for 24 hours (overnight). After the culture for 24 hours, the cells were washed with FBS & Phenol red-free media (RPMI), and 100 μL of FBS & Phenol red-free media (RPMI) or FBS media (RPMI) containing a predetermined concentration of purified protein, followed by reaction at 37° C. for 12 hours.
After the reaction for […], the cells were washed with FBS & Phenol red-free media (RPMI), 100 μL of FBS & Phenol red-free media (RPMI) containing a Co-h substrate solution (final concentration: 150 μM) and SYTOX Green (final concentration: 261 nM) staining DNA of dead cells was added, followed by reaction at 37° C. for 30 minutes.
After the reaction, 10 μL of DAPI staining DNA of live cells was added, followed by reaction for 5 minutes. Cell death was confirmed by observing KillerRed, SYTOX Green and DAPI fluorescence using a confocal microscope.

MCF-7 = experiment: Cell death after light irradiation by cell type (SYTOX Green/DAPI); type: cell-based, human; settings: MCF-7, protein 10 μM, light 10 mW/cm^2 for 10 minutes
Method: Data on each breast cancer cell line is as follows (Table 4): MCF-7: (Origin: breast, mammary gland, Species: human—person, Growth pattern: monolayer, Media: RPMI1640 with L-glutamine (300 mg/L), 25 mM HEPES and 25 mM NaHCO3, 90%; heat inactivated fetal bovine serum (FBS), 10%), purchased from Korean Cell Line Bank (KCLB).
(§1) The cells were seeded at 5×10^5 cells/mL in 96-well plates (SPL Cell Culture Plate, 96 well (SPL, Cat #30096)), and cultured at 37° C. for 24 hours (overnight). After the culture for 24 hours, the cells were washed with FBS & phenol red-free media, and 100 μL of FBS & phenol red-free media containing a purified protein (final concentration: 10 μM) was added, followed by reaction at 37° C. for 24 hours. After the reaction for 24 hours, the cells were washed with FBS & phenol red-free media, and 100 μL of FBS & phenol red-free media was added.
(§2) After irradiation with light at 10 mW/cm^2 for 10 minutes, 50 μL (final concentration: 261 nM) of SYTOX Green staining DNA of dead cells was added, followed by reaction at 37° C. for 30 minutes. 10 μL of DAPI staining DNA of live cells was added, followed by reaction for 5 minutes. Cell death was confirmed by observing KillerRed, SYTOX Green and DAPI fluorescence using a confocal microscope.

MDA-MB-435 = experiment: as above; type: cell-based, human; settings: MDA-MB-435, protein 10 μM, light 10 mW/cm^2 for 10 minutes
Method: MDA-MB-435: (Origin: breast, mammary gland, Species: human—person, Media: DMEM with glucose (4.5 g/L), L-glutamine and sodium pyruvate, 90%; heat inactivated fetal bovine serum (FBS), 10%), purchased from ATCC (USA).
as §1, §2

MDA-MB-231 cancer cells = experiment: IVIS in vivo imaging and tumor size in mice with MDA-MB-231 tumors; set-up: species or system mouse; settings: NOD-SCID mice, MDA-MB-231 tumor, protein injected into tumor (50 μM), Co-h 5 μg/50 μL subcutaneously
Method: MDA-MB-231 cancer cells (ATCC) were cultured in RPMI (Corning Inc.) containing 5% FBS (Corning Inc.) and 1% penicillin and streptomycin. Mice used in this experiment were 7-week-old NOD-SCID species, and purchased from Central Lab Animal Inc., and then the mice were raised without diet restriction for 2 weeks for acclimation at this research institute. The weight of a female mouse ranged from 17 to 23 g.
This animal experiment was conducted after approval by the Institute of Animal Care and Use Committee (IACUC) of the Asan Medical Center in compliance with the guidelines. 1×10^6 cells/50 μL of MDA-MB-231 cells diluted in RPMI and 50 μL of Matrigel (Corning Inc.) were subcutaneously injected into the adipose body of a NOD-SCID mouse. On day 9 after cell injection, a protein containing 20 μL of Matrigel (RLuc8.6-KR-LP, final concentration: 50 μM) was injected into a tumor when the tumor size of the mouse was approximately 40 mm^2. After respiratory anesthesia of the mouse, fluorescence emitted from the protein was imaged using an IVIS spectrum (Xenogen Inc.). For BL-PDT, Co-h (5 μg/50 μL, Nanolight Technology.) was diluted in 1×PBS (Corning) and then subcutaneously injected. The light emission from Co-h was imaged after the IVIS spectrum was set to 5 seconds.

[3] = Fluorescence assay of purified proteins (excitation/emission); type: physicochemical; settings: protein 10 μM in 1×PBS
Method: 100 μL of buffer (1×PBS) containing the protein purified in Example 1 (final concentration: 10 μM) was dispensed into a 96-well plate (SPL Cell Culture Plate, 96 well (SPL, Cat #32096)). Afterward, a fluorescence signal level was detected by fluorescence assay using a Thermo Scientific™ Varioskan™ Flash Multimode Reader.

| Molecule | cell incubation time after which the number of cells stained with SYTOX Green increased (MCF-7 cells [1]; light 10 mW/cm^2 for 1 minute) | cell incubation time from which the number of cells stained with SYTOX Green increased (MCF-7 cells [1]; light 10 mW/cm^2 for 5 minutes or 10 minutes) | number of cells stained with SYTOX Green according to protein concentration (MCF-7 cells [2]) | cell death after light irradiation (MCF-7) | cell death after light irradiation (MDA-MB-435) | tumor size (MDA-MB-231 cancer cells) | emission wavelength (fluorescence) [3] [nm] | excitation wavelength [3] [nm] |
| --- | --- | --- | --- | --- | --- | --- | --- | --- |
| RLuc8.6-KR-LP: fusion protein of RLuc8.6, KillerRed and lead peptide WLEAAYQRFL, 71 kDa (protein, pRSET-RLuc8.6-KillerRed-Lead peptide) MRGSHHHHHHGMASMTGGQQMGRDLYDDDDKDPMASKVYDPEQRKRMITGPQWWARCKQMNVLDSFINYYDSEKHAENAVIFLHGNATSSYLWRHVVPHIEPVARCIIPDLIGMGKSGKSGNGSYRLLDHYKYLTAWFELLNLPKKIIFVGHDWGSALAFHYAYEHQDRIKAIVHMESVVDVIESWMGWPDIEEELALIKSEEGEKMVLENNFFVETLLPSKIMRKLEPEEFAAYLEPFKEKGEVRRPTLSWPREIPLVKGGKPDVVQIVRNYNAYLRASDDLPKLFIESDPGFFYNAIVEGAKKFPNTEFVKVKGLHFLQEDAPDEMGKYIKSFVERVLKNEQEFGGGMLCCMRRTKQVEKNDEDQKISEGGPALFQSDMTFKIFIDGEVNGQKFTIVADGSSKFPHGDFNVHAVCETGKLPMSWKPICHLIQYGEPFFARYPDGISHFAQECFPEGLSIDRTVRFENDGTMTSHHTYELDDTCVVSRITVNCDGFQPDGPIMRDQLVDILPNETHMFPHGPNAVRQLAFIGFTTADGGLMMGHFDSKMTFNGSRAIEIPGPHFVTIITKQMRDTSDKRDHVCQREVAYAHSVPRITSAIGSDEDGGGWLEAAYQRFL | over 1 hour | approximately 30 minutes | the higher the number of cells stained with SYTOX Green | killing the three types of cancer cell lines | killing the three types of cancer cell lines | the smallest; also recorded: tumor growth is inhibited |  |  |
| KR: first protein KillerRed, ROS-generating protein (superoxide), expressed from pRSET-KillerRed, 31 kDa (protein, pRSET-KillerRed, first protein KillerRed, ROS-generating protein (superoxide), expressed from pRSET-KillerRed, 31 kDa) MRGSHHHHHHGMASMTGGQQMGRDLYDDDDKDPMLCCMRRTKQVEKNDEDQKISEGGPALFQSDMTFKIFIDGEVNGQKFTIVADGSSKFPHGDFNVHAVCETGKLPMSWKPICHLIQYGEPFFARYPDGISHFAQECFPEGLSIDRTVRFENDGTMTSHHTYELDDTCVVSRITVNCDGFQPDGPIMRDQLVDILPNETHMFPHGPNAVRQLAFIGFTTADGGLMMGHFDSKMTFNGSRAIEIPGPHFVTIITKQMRDTSDKRDHVCQREVAYAHSVPRITSAIGSDED |  |  |  |  |  |  | 610 | 585 |
